We go through 1 molecule from PMC6484134 (The Journal of Biological Chemistry, 2019).

The target in series [1] is T1, Cul3NΔ22 (human Cul3 N-terminal domain, residues 23–388, I342R L346D) (human, UniProt Q13618 23-388, I342R | L346D).
T1 construct: also called Cul3–NTD; Cu3NΔ22
The experiment in a line: ITC; 25 °C; 20 mM HEPES, 200 mM NaCl, 1 mM DTT; […] (70–[…]) […]. To be noted: both partners purified. Background: Isothermal titration calorimetry measures the heat released or taken up as one component is titrated into another.

Series [2] deals with T2, Cul3N (human Cul3 N-terminal domain, residues 1–388, I342R L346D) (human, UniProt Q13618 1-388, I342R | L346D).
T2 construct: also called Cul3–NTD
T2 sequence (Q13618 1-388 I342R/L346D): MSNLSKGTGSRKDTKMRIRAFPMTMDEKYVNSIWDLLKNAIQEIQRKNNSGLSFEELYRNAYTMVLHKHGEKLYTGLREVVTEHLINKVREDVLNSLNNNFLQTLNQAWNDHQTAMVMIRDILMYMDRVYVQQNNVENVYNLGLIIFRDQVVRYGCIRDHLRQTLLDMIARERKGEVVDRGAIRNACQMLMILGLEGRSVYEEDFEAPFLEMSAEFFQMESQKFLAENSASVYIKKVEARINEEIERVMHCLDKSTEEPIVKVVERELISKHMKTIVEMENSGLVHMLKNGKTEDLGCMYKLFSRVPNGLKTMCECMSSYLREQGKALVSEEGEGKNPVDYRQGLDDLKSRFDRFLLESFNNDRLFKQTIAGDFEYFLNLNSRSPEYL
Described as above. To be noted: both partners purified.

Series [3] concerns the molecule itself. Put plainly: […]; room temperature; […]; 20 mM HEPES, 150 mM NaCl, 2 mM DTT; […].

T1 sequence (Q13618 23-388 I342R/L346D): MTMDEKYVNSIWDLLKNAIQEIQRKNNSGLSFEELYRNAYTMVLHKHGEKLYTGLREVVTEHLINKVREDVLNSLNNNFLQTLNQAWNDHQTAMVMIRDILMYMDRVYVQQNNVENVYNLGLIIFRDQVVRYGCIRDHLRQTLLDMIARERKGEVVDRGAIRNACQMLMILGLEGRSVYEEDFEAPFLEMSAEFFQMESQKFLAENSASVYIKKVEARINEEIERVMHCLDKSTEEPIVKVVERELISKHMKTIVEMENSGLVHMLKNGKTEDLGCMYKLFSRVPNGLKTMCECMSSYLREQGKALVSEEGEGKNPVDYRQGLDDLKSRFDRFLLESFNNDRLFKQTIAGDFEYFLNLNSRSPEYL

B1: A55BB (A55 BTB-BACK domain, residues 1–250), wild type (domain or fragment)
chain: MNNSSELIAVINGFRNSGRFCDISIVINDERINAHKLILSGASEYFSILFSNNFIDSNEYEVNLSHLDYQSVNDLIDYIYGIPLSLTNDNVKYILSTADFLQIGSAITECENYILKNLCSKNCIDFYIYADKYNNKKIESASFNTILQNILRLINDENFKYLTEESMIKILSDDMLNIKNEDFAPLILIKWLESTQQSCTVELLRCLRISLLSPQVIKSLYSHQLVSSIYECITFLNNIAFLDESFPRYH
As for B1, the Kd (in general, the free concentration of one partner at which half of the binding sites on the other are occupied at equilibrium, for simple one-to-one binding) was 5.3 nM in series [1] and less than 1 nM in series [2]. Further, the results for the dH in series [1] and in series [2] were -9.9 kcal/mol and -17.7 kcal/mol, respectively. Further, in series [3], the stoichiometry N (as a rule, the number of molecules, sites or subunits per partner or assembly) turned out to be 2.
